Target: cytochrome bd from Escherichia coli, His6-tagged (His6-CydABX) (E. coli) (UniProt P0ABJ9)
Assay: SEC; 500 ug purified cytochrome bd on Superose 6 10/300 in 50 mM MOPS, 100 mM NaCl, 0.1% LM, pH 7; UV 280 nm, refractive index and right angle light scattering monitored

Substance: cytochrome bd from Escherichia coli, His6-tagged (His6-CydABX) (from UniProt P0ABJ9 1-522; P0ABK2 1-379) (complex)
- stoichiometry N: 4

Reference: paper PMC4899803
